Data as given in a protein production outcome set (Wang et al. 2014).

Assay: label from the status in PepcDB records
In the case of “MAPPAQKGNLRKRSGKTSTAVNSAINENVRKLVRSLSEPGTSQKKLRQMEDTALKIIANQRRTWAPTTTDMEVKRNLDDLAERFRAEGMASFGESIKDLAIRYLAMDENQQQFNPNPGWQMLELLFRIADRPVQKIRLNREFMEQRRLSIINSMEEAERQAQIEEQAKLEAAKNTSETEVDWAALLSEDFLDPPEDDSSDSLSDWSEESDCDSTTTLKPDENIGVSRSLLEMARVYEQAMMAVVPTGSVNKTYMPPEQSVIRSYDFRIMKPTVLSLNNLKGSHLRRSKLLQLPPPQPPRPFTQYWQSGNTDTLFRKIHSHWWCQDVHLNALPSSAKPLDNFAVSYVQFLNHNARGLLALPVPKTITEPCLLREILFMFVRPASCCFFEFDKATRRITVRDNVSICTVTASTMQNFLLFNVVPALEDMMELRHIIDTHTLHFHGVKTTYTVEFFAYGLRDLVQPICQLLIAYEDRVNKDPAKNTLIRFTIEFREHFSQLRLLRELAEDVILDKGPAHIRSAYLLSRLYKHTLLQVPHQKLATALLFISLKRYCIIIDGWWRRAALEDHLREFIVEFCYEEDANTRSHVRKRNMGMEDDLLLVEIFNKLQSCPLYQLLLEHALESGETQDLLCSVNTLSEMLTSNNEIQLPSLHDELFTQFFAQLKVYCGADNTDYEDEPEPDKDYEDLTVCNRQGIRNHELFAIFTQPLVEQRLERQRERLKSNPVLMANILKRLERSTCLQLKSELPEALREILRRRQWLANEYAIRAYCKETQVAEKMRFLRHTMLLEKYYLFVPYYNALFVRMEKNNSWALGSVLTSKLCAVLLPHYPQLAHYLHVKLISQINSNSIKVYEALEAIELDFERPMAMHQWYILTPAHMQDYNSVWRLMLKVKWAVWKLENMQFLRRARFNPCAPLDLIGLTIRRLEIVRFWLIFLINNLHAHIMEAVSRQFELRIGECKNVRELRIMHDEHLAWLKTHCMLTDEFKAFRVALDQIFHLVYVLDMEWTTCASCMHDHDALCLDFTISDDGIDDSETQRRSLEYLALNQVAEIELTYIRCHQMLADILNTLVHQNDHGFLSALEETINSSVPH”, the protein production is reported as “failed”.
In the case of “MAPRDIRPGAEYGDIIEEAIVTCKVFLIVFSETSQISRWVRSELNIGFSSNKPIIPFRIDPTDLKGSMKLMLNDKHWLNAYPNPEEKFSELAAVILDLLQHPAVDTISPPGFQPASNVASADGSNAGAQGLFGKLLNQLFVKRRVKVTSDHAAEIFLNGERKGKLDAYETGNYSVSEDFYQLEVYSCEYGKKVKCEYSGSFSNSSTVIISVDMATAEKQYLMKAKNITSGQINDLGIIFLDEGKFEDAQECFLKAASMGEAAAAYNLGMMYHFGKGVEIDYDVAREYYEEAVKSDYPLALNNLGSIYYNGHGVRKDIAKSFPYFCRAAERGVESAQFTVATMLFYGQGVAVDKAKAKKWFQKAAAQGCKDSQNYLNSWVDDLEHHHHHH”, the protein production is reported as “not failed”.
In the case of “MAQFLEKATSALSEAKESVTSTAESVTASLTDAEKTVNQTARSTLTDAETTVAASVETVKTEAAAAPDKASGVSTQAKDAVDKAFSRGIEGAKSLLQTFEAKSSDISSKLVGGVTNLVSGASSSTVANRDLPVSTDNQPLLASGEKTPWWKNCCGVLDLFKKDT”, the protein production is reported as “failed”.
For “MAQFLRRFSSSPMANEDEFQSPVEPSQQQSQDCVSESYLIGFVIANIVGLKYYSGRINGREMVGLVREPLNVYDNNAIRVLNTRSEQVGHIERTVAAVLAPMIDSHTIVVEGIVPNTRSNSNRYRIPCQIHVFAKLEASSTVKSTISRGGLVLISESDTSFGLSEAVVVKEQMGNGDKRSVDKIFKLVDENVKLMGKLVAAEPPREVIKSELFAHQKEGLGWLLHREKSGELPPFWEEKDGEFLNTLTNYRSDKRPDPLRGGVFADDMGLGKTLTLLSLIAFDRYGNASTSTPTEEPLDGEGDKIEKKGKKRGRGKSSESVTRKKLKTDDVVGMNVSQKTTLIVCPPSVISAWITQLEEHTVPGILKVYMYHGGERTDDVNELMKYDIVLTTYGTLAVEESWEDSPVKKMEWLRIILDEAHTIKNANAQQSRVVCKLKASRRWAVTGTPIQNGSFDLYSLMAFLRFEPFSIKSYWQSLIQRPLGQGNKKGLSRLQVLMATISLRRTKEKSLIGLPPKTVETCYVELSPEERQLYDHMEGEAKGVVQNLINNGSLMRNYSTVLSIILRLRQLCDDMSLCPPELRSFTTSTSVEDVTDKPELLQKLVAALQDGEDFDCPICISPPTNIIITRCAHIFCRACILQTLQRSKPLCPLCRGSLTQSDLYNAPPPPPDSSNTDGEDAKSSTKSSKVSALLSLLMASRQENPNTKSVVFSQFRKMLLLLETPLKAAGFTILRLDGAMTVKKRTQVIGEFGNPELTGPVVLLASLKASGTGINLTAASRVYLFDPWWNPAVEEQAMDRIHRIGQKQEVKMIRMIARNSIEERVLELQQKKKNLANEAFKRRQKKDEREVNVEDVVALMSL”, the protein production was “failed”.
For “MAQNPERRAALVNAAIEVLAREGARGLTFRAVDVEANVPKGTASNYFPSRDDLFDQVGKRIHERLGPDPSVVEESGRKPQNLELAIEYMQGLFGRITRDRTGYLALQELRLEAVRRPELRTTLTRTISENLKRDIGFHLDSGLPGDRSTVLMLYLAMNALIVEHLTLPGVLEGVDTERLVADLVTRAVATPDA”, the protein production was “not failed”.
In the case of “MAQREIRLVDNEYPSPSMTHPPIPLSDIALTGIFEISKILTSPARLEITLANVVNLLQSFLQMRNGVVSLLADDGVPDITVGVGWNEGSDNRYRARLPQKAIDQIVATAVPLVADNVSAHPMFTAADAMALGATDEIRVSFIGVPIRIDSRVVGTLSIDRVRDGRSHFRMDADVRFLTMVANLIGQTVKLHRVVARDRERLMAESHRLQKELS”, the protein production is reported as “failed”.
In the case of “MAQSFLLMGALIQHHLKGEKADLLTPEKLLEAANKQGTVPSRVRYQWMEDEETGRLKAVGYHTSMESGRDQVRVRLLKHDFPNNRYEFWEEGATGPTILWTPDNPGIELPTDTAHGEQPVIPSAIPGLEIPEMDDVSILATPMPDEKDFRDYILVFPENAFPPIYVYLSKKIDTPIWLEHHHHHH”, the protein production is reported as “not failed”.
In the case of “MAQVINEMDVPSHSFVFHGTGERYFLICVVNVLLTIITLGIYLPWALMKCKRYLYANMEVNGQRFSYGITGGNVFFSCLVFVFFYFAILMTVSADMPLIGCVLTLSLLVLLIFMAAKGLRYQALMTSLNGVRFSFNCSMKGVWWVTFFLPILMAIGMGTVFFISTKMLHANSSSSVIVSVVLMAIVGIVSIGIFNGTLYSLVMSFLWSNTSFGIHRFKVKLDTAYCIKYAILAFLALLPFLAVAGYIIFDQILNAYDSSVYANDDIENLQQFMEMQRKMIIAQLIYYFGIAVSTSYLTVSLRNHFMSNLSLNDGRIRFRSTLTYHGMLYRMCALVVISGITGGLAYPLLKIWMIDWQAKNTYLLGDLDDLPLINKEEQPDKGFLASISRGIMPSLPFL”, the protein production is reported as “failed”.
With “MAQYPEQLNGIFQALADPTRRAVLGRLSRGPATVSELAKPFDMALPSFMKHIHFLEDSGWIRTHKQGRVRTCAIEKEPFTAVEAWLAEQQELWESRTDRLEQFVTEHTVTAHAKATPQ” the protein production was “not failed”.
With “MAREFKRSDRVAQEIQKEIAVILQREVKDPRIGMVTVSDVEVSSDLSYAKIFVTFLFDHDEMAIEQGMKGLEKASPYIRSLLGKAMRLRIVPEIRFIYDQSLVEGMRMSNLVTNVVREDEKKHVEESN” the protein production was “not failed”.
For “MARIIRRPLNLTAAVRFRLSPLSPFSGNSGSINSETTSWSELIRVPSLVEGCDYKHWLVLMKPPNGYPTRNHIVQSFVETLAMALGSEEEAKRSIYSVSTKYYYAFGCRIHEPLTYKIRSLPDVKWVLPDSFIVDGDNRYGGEPFVDGEVVPYDEKYHADWLRDQTDEDAKSGVVKKKHRRKRKKKLI”, the protein production was “failed”.
For “MARLILERFLQEHEETPPSKSIINSMLRDPSQIPDGVLANQVYQCIVNDCCYGPLVDCIKHAIGHEHEVLLRDLLLEKNLSFLDEDQLRAKGYDKTPDFILQVPVAVEGHIIHWIESKASFGDECSHHAYLHDQFWSYWNRFGPGLVIYWYGFIQELDCNRERGILLKACFPTNIVTLCHSIA”, the protein production was “failed”.
For “MARPSGPATMRTTDGGPMRDIDWLLTDAHALRERGELDPARALYDEALEKARATGETEGLAKALRHVSDMDREAGRLEAALAAAEEAATLYGALGREHRLDLANALRLTALALEALGRPALQPWREAGDLYAELDIAAGLAEAERHLGLVVRPAQSVELEPLARLWWQGWRDAHLPIVPEALARLRTLESFTTRMAAALPQVRVLGPVGAPIGLHLIKDDELNQLYLAAEARGAGFAAVLMADAEAHLADAGVRKAWLACAIGNDRAARFYEKSGWTRARAEIVPTETPAGPFPLEVWRYEKVLTRSEPQTL”, the protein production was “failed”.
For “MARREICNKGVVAGVQYSHSHRQSKRTWAPNIKKVKAIVKGTPKTVHVCTRCLRSEKFKELYKKSLAKMQFNNCIFILHKNKGLEHHHHHH”, the protein production was “not failed”.
In the case of “MARSKVKNLLLLKQIHSAVSQIKKGKLDKALETLDKAETSARQSKSTDALYYILFTRGGILYSAKEYDQALEAYEKALEAGSDLLKTDPENADYQHYMGTTLSNTGNLLKKKSEIDKADEYYSQARKIYFDLIKKDPQNAVYQSYAGENLNNYGELLMESGSLEKACEILREAIEIYEKLYKEKPDNLGYQAELSVALSQLGGCLKHQVPEESGAAKEKLEKALELQESLLDQQPENEKVKEAIALTEERLKGL”, the protein production is reported as “failed”.
With “MARTLFLEEGPMFFEKIAPYTYRIPRQGKMRVDAVFFASKEILKDLEAENYASLQQLMNVATLPGIVEPALAMPDIHWGYGFPIGGVAAFDPEEGGVVSPGGVGFDINCGVRLLASHLTLEDLLPRQKELADALYRLVPSGVGSERRDVRFSKRELKEILKEGAGWLVKRGYGYPEDVRFIESQGRLPWANPDKVSERAFERGAPQIGTLGSGNHFLEVQYVDEVYDEEAALAFGLFKGQVTVLIHTGSRGLGHQVCQDYVERFLKVAPRYGIELVDKQLAAAPIKSPEGQDYLQAMAAAANFAFANRQLIAHFVREAFEKVGFTPRDHGLRVLYDLAHNNAKFEEHRGRRVLVHRKGATRAFGPGHPEVPEEYRRVGQPVLVPGDMGRYSYVLAGTEKAMEVSFGSSCHGAGRKMSRHQAKKVARERNLVKELAERGILVRAATRATVDEEMPEAYKDVSLVVEAVEGAGIGKKVARLRPLIVVKG” the protein production was “not failed”.
In the case of “MARVVVDAQAARAIGKGAMIVFKKGVVRVEGDIKPGDIVEVYTRGGKFLGKGFANPNSNIMVRIVTKDKDVEINKDLFKRRIKKANEYRKKVLKYTNVYRMVYGEADYLPGLIVDRFNDIASLQISSAGMERFKLDVAEAIMEVEPGIETVFEKNTGRSRRREGLPEIERVLLGKEKYRTIIQEGRAKFIVDMRGQKTGFFLDQRENRLALEKWVQPGDRVLDVFTYTGGFAIHAAIAGADEVIGIDKSPRAIETAKENAKLNGVEDRMKFIVGSAFEEMEKLQKKGEKFDIVVLDPPAFVQHEKDLKAGLRAYFNVNFAGLNLVKDGGILVTCSCSQHVDLQMFKDMIIAAGAKAGKFLKMLEPYRTQAPDHPILMASKDTEYLKCLFLYVEDMR”, the protein production is reported as “not failed”.
In the case of “MARYLVVAHRTAKSPELAAKLKELLAQDPEARFVLLVPAVPPPGWVYEENEVRRRAEEEAAAAKRALEAQGIPVEEAKAGDISPLLAIEEELLAHPGAYQAIVLSTLPPGPSRWLRLDVHTQAERFGLPVIHVIAQAA”, the protein production is reported as “not failed”.
In the case of “MASDSGNQGTLCTLEFAVQMTCQSCVDAVRKSLQGVAGVQDVEVHLEDQMVLVHTTLPSQEVQALLEGTGRQAVLKGMGSGQLQN”, the protein production is reported as “not failed”.
In the case of “MASEQEKTADFGFRTVAKDEKEVMVAEVFHSVAAKYDLMNDLMSFGIHRIWKRFTIECSGVRRNQRVLDLAGGTGDLTAKFSRMVGEGGEVILADINASMLKVGREKLRNKGIIDNINYVQANAEALPFPDDFFDCITISFGLRNVTDKNKALRSMYRVLKPGGRLLVLEFSKPVIKQLSTIYDAYSFHILPRIGEAVASDAGSYRYLAESIRMHPDQETLKGMMSDAGFDSVNYFNLTGGIVALHRGFKFLEHHHHHH”, the protein production is reported as “failed”.
